± gives the half width of the 95% confidence interval.
Columns and labels:
[1] = folding stability dG unfold from trypsin proteolysis; higher = more stable
Method in brief: (§1)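 K50 was inferred by Bayesian fitting of sequencing counts obtained after protease digestion of designed mini-proteins. Unfolding free energy was derived by comparison with a sequence-predicted unfolded-state K50 and a shared folded-state K50, for each protease or both combined. The mini-proteins were under 80 residues, had no cysteine, were carried in a PA-tagged cDNA display construct, and were kept only if AlphaFold2 dimer inter-PAE exceeded 15.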

[2] = folding stability dG unfold (combined trypsin and chymotrypsin); higher = more stable
Method in brief: as §1

[3] = folding stability dG unfold from chymotrypsin proteolysis; higher = more stable
Method in brief: as §1

Row | Sequence | folding stability dG unfold [1] [kcal/mol] | folding stability dG unfold [2] [kcal/mol] | folding stability dG unfold [3] [kcal/mol]
1 | SAGKVEIIPIENEDGSKFLVIKVNGKLIIITENEDGSISIKIIDLKTNKIEVIEIPKKDLKKALEKILKSAG [r5_674_TrROS_Hall] | 3.82 ± 0.18 | 3.59 ± 0.2 | 3.48 ± 0.12
2 | SAGGSAGGSAGGSMKTVELSSEEEAKKIVEEAKKKGIPLTLVLTDPKTGNPKTFEFPLASAGGSAGGSAGGS [r4_188_JUSTAS] | -0.213 ± 0.22 | 0.0568 ± 0.48 | -0.248 ± 0.41
3 | SAEVEVELVEVNGKLFLVMKVKEKDENGKEREYLVVVEVEFDPETKKLTVKVYVFPSKEEAEEALKKLLSAG [r14_500_TrROS_Hall] | 3.92 ± 0.52 | > 6 | 5.26 ± 0.45
4 | SAGGSAGGSAGGSMVKISKEPDRLTITITPGNTPLVFESTEPISEEEFVEKAKKENPLISAGGSAGGSAGGS [r4_191_JUSTAS] | 0.215 ± 0.13 | 0.657 ± 0.17 | 1.03 ± 0.037
5 | SDKIVKLIKKIMEEMGLPITKITDVEPGWIVIRMPNGWKIDIEIDPDDPDVIDIKWQPDPNGGMYMVIPVSA [r9_809_TrROS] | 2.03 ± 0.078 | 2.6 ± 0.21 | 2.65 ± 0.069
6 | SAGGSAGGSAMKEIKIELTYEDEEEAEKKAKEEKEKIKKELEEKGIKVEKITVEIHPPYHHSAGGSAGGSAG [r3_463_JUSTAS] | -0.647 ± 0.095 | 0.796 ± 0.14 | 1.12 ± 0.067
7 | SSPKIVVEVTLDGNPRTITIPSSLSLEEIKEKILEALKEEGIEDVPIEEIKIKKEEELPTEEGESKIVVSSA [r9_1053_JUSTAS] | 0.999 ± 0.066 | 1.76 ± 0.15 | 2.08 ± 0.087
8 | PPLKIKMERYPNGMMKIDKIEVPNDGSIKLTLKFPNNGRKIERTIPPNAPPGQEKEIWFPFPNGFYRLKIES [r1_43_TrROS] | 0.0375 ± 0.24 | 0.32 ± 0.23 | 0.291 ± 0.26
9 | SAGGSAGGSGGMMSRTINVSVNPAPGESPEDIVKALAAELGVTIKSVKYSTSSSSLTFTIEVVSAGGSAGGS [r20_188_JUSTAS] | 1.05 ± 0.04 | 2.16 ± 0.068 | 2.48 ± 0.077
10 | SAGGSAGGSAMTFTVNSEEEVEKLKKLGGVTKTSEEPGKVTLSAPNLPPELQEKIKEVIQKSAGGSAGGSAG [r3_398_JUSTAS] | -0.548 ± 0.2 | -0.111 ± 0.26 | 0.434 ± 0.27
11 | SAGGSAMKEITIEVDGKTVRVKVYFKDTGKVVERTFPKGTSVEELAKELEEEFGKDVEIVEVEEVPSAGGSA [r15_544_TrROS_Hall] | 2.43 ± 0.11 | 3.24 ± 0.15 | 3.57 ± 0.11
12 | SAGGSAGGSAMTIEVTVPPEVPEEEAAERVARALRELFPIPEIKVSVERRPDGIIKVTVEGGSAGGSAGGSA [r18_1_TrMRF] | 0.81 ± 0.04 | 0.888 ± 0.1 | 0.902 ± 0.052
13 | SAGMIVTVLSKEVDPATGSTTTYSVSTDPETGETFLYTTTTTGDTVTTTRTVFFPGTGTTSTSTTTTSASAG [r5_150_JUSTAS] | 2.17 ± 0.056 | 2.73 ± 0.046 | 3.019 ± 0.017
14 | SAGKVIIIPAEKAEPELIKEILKKVPEGTEIRIAFAGPELVELLKELGFEVKPELVKPLTPEDLKKLLESAG [r5_354_TrMRF] | 0.747 ± 0.062 | 1.59 ± 0.11 | 1.92 ± 0.092
15 | SAGGSMSPEEKARKLAEELRKKLPPGAKVRIKVEVDGKTYEIEIEPGEEIEFPPGEKVKIVEIEVESAGGSA [r2_391_TrROS_Hall] | 3.12 ± 0.16 | 2.98 ± 0.3 | 2.82 ± 0.2
16 | SAGGKTVLVPVKSPEEAKIFIENFPESYDKVIVFNPETGTKAVFYIDPKTREVKEVKVEKFDLNDPNASAGG [r13_945_TrMRF] | 0.913 ± 0.017 | 1.12 ± 0.066 | 1.22 ± 0.052
17 | SAGGNFEIWRHPENGILWIEFRIPAGEPLEIPLKFKAPNGKPIKITKFHIWPMNDWWYIKFIIKIPPSAGGS [r16_499_TrROS] | 3.15 ± 0.12 | 2.99 ± 0.25 | 2.84 ± 0.06
